These results are taken from patent publication US20100029702A1, “Method For Identification of Compound Having Anti-Anxiety Effect” (priority 2006, published 2010).

The assay addresses T1, protein encoded by ph01207 (Homo sapiens, UniProt O60241, DEL308-362).
T1 construct: expressed in transfected cells; host or cells: CHO-K1 (HA-ph01207#10-6, FERM BP-10101), T8HA-attR/pCINeo
T1 sequence (O60241 with tags, fused parts or gaps DEL308-362): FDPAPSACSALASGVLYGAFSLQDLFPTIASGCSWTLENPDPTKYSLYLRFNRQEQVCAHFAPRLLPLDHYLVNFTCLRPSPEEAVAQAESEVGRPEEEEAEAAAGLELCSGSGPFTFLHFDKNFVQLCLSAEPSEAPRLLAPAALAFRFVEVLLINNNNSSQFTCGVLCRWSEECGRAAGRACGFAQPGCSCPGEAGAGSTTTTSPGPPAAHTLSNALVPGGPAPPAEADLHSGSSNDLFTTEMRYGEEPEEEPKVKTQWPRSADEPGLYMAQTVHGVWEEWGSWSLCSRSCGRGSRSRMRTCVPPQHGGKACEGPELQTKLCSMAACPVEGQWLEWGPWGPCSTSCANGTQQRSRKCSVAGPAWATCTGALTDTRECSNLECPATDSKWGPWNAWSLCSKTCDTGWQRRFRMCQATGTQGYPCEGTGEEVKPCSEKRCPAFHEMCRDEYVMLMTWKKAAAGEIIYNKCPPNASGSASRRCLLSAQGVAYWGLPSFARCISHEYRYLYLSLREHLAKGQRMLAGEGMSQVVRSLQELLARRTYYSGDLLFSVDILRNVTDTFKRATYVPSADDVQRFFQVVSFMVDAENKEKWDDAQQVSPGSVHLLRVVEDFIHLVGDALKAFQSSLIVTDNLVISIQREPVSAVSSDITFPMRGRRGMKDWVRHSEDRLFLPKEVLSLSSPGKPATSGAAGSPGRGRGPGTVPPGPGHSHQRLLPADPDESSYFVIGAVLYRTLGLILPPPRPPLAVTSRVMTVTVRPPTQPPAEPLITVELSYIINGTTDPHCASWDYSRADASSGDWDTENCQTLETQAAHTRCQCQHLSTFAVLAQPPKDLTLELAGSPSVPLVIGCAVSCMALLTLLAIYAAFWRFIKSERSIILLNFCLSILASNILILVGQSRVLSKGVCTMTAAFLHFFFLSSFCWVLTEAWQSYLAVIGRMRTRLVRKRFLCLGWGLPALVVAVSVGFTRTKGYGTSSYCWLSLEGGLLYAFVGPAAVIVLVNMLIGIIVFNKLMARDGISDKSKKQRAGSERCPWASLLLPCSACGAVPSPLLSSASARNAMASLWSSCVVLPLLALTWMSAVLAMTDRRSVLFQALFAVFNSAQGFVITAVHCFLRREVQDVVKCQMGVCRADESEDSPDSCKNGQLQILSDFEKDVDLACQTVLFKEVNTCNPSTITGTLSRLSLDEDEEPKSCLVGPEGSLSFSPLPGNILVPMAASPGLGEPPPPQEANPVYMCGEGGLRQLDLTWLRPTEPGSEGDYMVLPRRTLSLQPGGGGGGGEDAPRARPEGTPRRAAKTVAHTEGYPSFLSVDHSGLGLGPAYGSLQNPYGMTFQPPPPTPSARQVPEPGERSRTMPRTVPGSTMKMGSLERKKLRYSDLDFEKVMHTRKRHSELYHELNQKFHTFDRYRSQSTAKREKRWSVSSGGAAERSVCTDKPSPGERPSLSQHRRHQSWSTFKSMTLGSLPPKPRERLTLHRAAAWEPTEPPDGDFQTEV
Briefly: Changes in intracellular Ca2+ concentration in HA-ph01207#10-6 cell strain (CHO-K1 stably expressing ph01207). In kind it is cell-based. The method, then:
Changes in the intracellular calcium (Ca^2+) concentration induced by CCK-8S (SEQ ID NO: 14), CCK-8NS, or CCK-4 were measured using the cell strains expressing ph01207 prepared in Example 2. The cell strains prepared in Example 2 were eight strains that expressed the protein encoded by ph01207 as FLAG-tag fusion proteins and four strains that expressed the protein encoded by ph01207 as HA-tag fusion proteins. Of these, the HA-ph01207#10-6 cell strain, a strain obtained by cloning one of the cell strains that stably expressed the protein encoded by ph01207 as HA-tag fusion proteins, was used in this example. CCK-8NS was a CCK octapeptide having the same amino acid sequence as that of CCK-8S (SEQ ID NO: 14), but a region from the C terminus to the seventh tyrosine residue was not sulfated. CCK-4 was a tetrapeptide comprising residues from the C terminus to the fourth amino acid of CCK-8S (SEQ ID NO: 14).
The specific method for measuring changes in the intracellular Ca^2+ concentration in the HA-ph01207#10-6 cell strain induced by CCK-8S (SEQ ID NO: 14) and the results are described below. The HA-ph01207#10-6 cell strain was seeded on a 96-well plate (a plate with a black wall and a transparent bottom) at a cell count of 2×10^4/100 μL medium/well and cultured at 37° C. in the presence of 5% CO2. As a medium, DMEM/F12 (Gibco) containing 10% fetal calf serum (Moregate) was used. On the following day, 50 μL of the medium was removed from each well, 50 μL of a loading buffer was added to each well, and the mixture was reacted at room temperature for 1.5 h, so that a fluorescent dye contained in the loading buffer should be taken up into the cell. The loading buffer was prepared by dissolving component A of the FLIPR Calcium 3 Assay Kit (Molecular Device) in a solution obtained by adding 0.1 mL of 500 mM probenecid (Sigma) to 9.9 mL of component B. After reaction, changes over time in the fluorescence intensity in each well after addition of CCK-8S (Peptide Institute, Inc.) were measured using the FLEX station (Molecular Device). Furthermore, similar measurement was performed for CCK-8NS (Peptide Institute, Inc.) and CCK-4 (Peptide Institute, Inc.). 0.52 mg of CCK-8S (SEQ ID NO: 14) was dissolved in 4.5 mL of 1% NaHCO3 (Wako) to prepare a solution having 0.1 mM concentration. 0.53 mg of CCK-8NS was dissolved in 0.50 mL of dimethyl sulfoxide (DMSO, Sigma), and then 4.50 mL of redistilled water H2O was added to prepare a solution having 0.1 mM concentration. 0.54 mg of CCK-4 was dissolved in 0.46 mL of DMSO, 4.09 mL of redistilled water was added to prepare a solution having 0.2 mM concentration. […]

Regarding “cholecystokinin octapeptide sulfated form [CCK-8S]”, the “Change in intracellular Ca2+ concentration (fluorescence intensity)” value (peptide at final concentration 1 nM) is given as “increased”.
Turning to `CNc1ccc2oc(C[C@H]3O[C@@]4(CC[C@H]3C)O[C@H]([C@H](C)C(=O)c3ccc[nH]3)[C@H](C)C[C@H]4C)nc2c1C(=O)O` [A23187], under “A23187 10 μM, positive control”, the “Change in intracellular Ca2+ concentration (fluorescence intensity)” value is “increased”.
